These are literature values, as cited in paper PMC3604136.

pKd: −log10 of the molar value.

In this series the target is ARNT PAS-B (Homo sapiens) (UniProt P27540).
Chain of ARNT PAS-B (Homo sapiens) (P27540 356-470): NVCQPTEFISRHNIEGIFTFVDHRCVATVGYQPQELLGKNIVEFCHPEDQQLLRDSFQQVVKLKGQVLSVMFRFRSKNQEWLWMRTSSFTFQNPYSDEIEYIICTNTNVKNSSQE

Chain of HIF-2α PAS-B (Q99814 239-350): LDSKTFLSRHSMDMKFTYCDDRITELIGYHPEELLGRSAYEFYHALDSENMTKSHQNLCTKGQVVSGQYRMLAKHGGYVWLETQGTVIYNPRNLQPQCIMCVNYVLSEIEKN

The pKd is the negative decadic logarithm of the Kd, by convention in mol/L. As for HIF-2α PAS-B (from UniProt Q99814), the negative-log Kd (pKd) was 4.00.
